The source of these data is PMC4999191.

In this experiment the target is calmodulin (CaM agarose beads) (UniProt P62157). Nature of the experiment: pull-down with CaM-agarose beads, immunoblot (band quantification printed under the lanes). The following applies: parent: 100.

With “PC1-p30, soluble polycystin-1 cytoplasmic tail R4150C”, the percent of parent amounted to 116.

As to “PC1-p30, soluble polycystin-1 cytoplasmic tail L4137P”, the percent of parent amounted to 29.
